Assay results: article PMC3156696 (Developmental cell, 2010)

How the values were obtained:
[1] = molecular target: soluble αβ-tubulin heterodimer purified from bovine brain (bovine) (UniProt Q6B856)
[2] = molecular target: soluble αβ-tubulin heterodimer purified from bovine brain (bovine) (UniProt Q6B856); experiment: SEC
[3] = molecular target: GMPCPP-stabilized microtubules (unlabelled, polymerized bovine brain tubulin) (bovine, UniProt Q6B856 1-445); experiment: co-sedimentation
[4] = molecular target: soluble αβ-tubulin heterodimer purified from bovine brain (bovine) (UniProt Q6B856); experiment: AUC
AUC = molecular target: the molecule itself; experiment: AUC

B1: full-length S. pombe Cls1p (residues 1-1462) (natural protein, UniProt O42874 1-1462, looked up)
chain: MADKDAQDFLKFLKSNASTDEKTRCLDTLRSFFNKNNIPNADLGLFVECFRLALTTVNPLLLRSSVACFETFLRRLRAQYPTWLKFRVPMLKNLVIDHIASRDLQKRVLNILIDLWHFNPSEIEKSLIHLSTTSKSAETRIQCFKWFVLAHNAHLSFDVKSLRPALYINLENANPSVREEAKEVLLLIYKNLSTSAKMQFITDVETTSGLRREILQSLVEELSLISSSSEVIIVQNSASSFQPAPFMTAVATLYPGVELENVKPLLANFSKQLEQDSASMLPAFEGRETEQNWSVRQDSVLRLRQYLRGNACIDYLPELLSVLKTLLPGILLALLSLRTTLSSSAIQLIKEMAIILKSNIDPFLELILPNLLKVCSVTKKLASQAANVTFAAILVNCGVLSRNLSFISLAAHDTNAQLRVFSSNWIFMLISLSPELKNLASLQTNLKAFEKLICRGLADSNSQVREVYRKSFWKLSEYFPSVQEELTNTLEPSVLKQLHLANPNRQAASFNFSGPKRAPIRPLSNLRSFSKSQKEETSSNSSNSSGTRRLGLPQRATPASRERVLPYTRSQAFHSTSLPPSLPSGHSPSIAIPSKRSVSATIKDESKTFELLKNIQRKYELILSGSSVDLPSAEFLSSNLTDALYSGSSICYSLIFSHSLLDLTFQYVDIASLLSQFLLCVYDPSNVGHSFALASFPYVKSHYDAHKYFPIVFDVLMNISNMAPHVKVFPFNTNQKRLIIHGCLLWLKEISDTKLNQLENKPFFVTDKLRYYSSKILAMTAKTKLTSKNWIPLSGLLFSLRAHDTFMFDGLLDRLNEESRTKLVSSWSKQDAFDYSKSSTHQEHLSKNLPTLNTSSSSNSSQTDLLVPHGKGETKETEMQSPIESKEGLLSKDTHIESPQGTSLEKENEEEGKNPVESNCSEESLDDHNIDQTLVNKKETLAQDSESLLQKNNALNEKGFENQFGLSSSAAKVLNKDTLDHVSGPISNSVSSSFKDFTRTPFKEINGERETGFELTSYVNALSKKDDINVQKTENVDESVGLNAMFMDNVNQDSLNSVDQSSGKDKLLLTSSTPNKPTTFFMPANEEILGSPAKDYDIHDQSYSVHELHSENMRENVGQSSLIYNNRDYMNTPMNDFSLSFSEIKGGILESPVESPMTGTISPIDADESVLHDIPAYESLNKSESNKYQEQAYSTPLHHTLNVLPKNKWILSRMHKMENGSPINVDKNLDDAVAALEAAVKELNDGSVNTKTLKFCIKVCKETPSMLYHSHGLLPAILHYIESNNSAMHISDCLILLHEFLVQGYQGVDMHTYHNIICILIEKAEKCKDEPVILAGIEDNITLIAEIADLQGLYEFTQQRLQSLNTETGEKSAPLLLMLLSAILMRLKDLEFLETKDLLRHVVLKYIDHTNPEIRKATFNVCLAVNTIVNNVDETFSILGGLNEGQRLLFMHYLKMKSDEKN
In the case of B1, the MT rescue frequency in TIRF dynamics assay, 6 μM tubulin, Cls1p 20 nM to 140 nM [1] is reported as 2.15 rescues/min, the stoichiometry N (Cls1p molecules per αβ-tubulin dimer) [2] is reported as 2 and the “stoichiometry N” value [3] is reported as ~6 polymerized tubulin dimers per Cls1p monomer.

B2: Cls1p-GFP (full-length Cls1p with GFP fused to its C-terminus) (natural protein, S. pombe, UniProt O42874 1-1462, looked up)
chain: B1 chain
In the case of B2, the stoichiometry N (tubulin dimer per complex) [4] is reported as 1 and the “stoichiometry N” value (AUC) is reported as 2.

B3: Cls1p^604 (residues 1-604) (domain or fragment, S. pombe, UniProt O42874 1-604, looked up)
chain: MADKDAQDFLKFLKSNASTDEKTRCLDTLRSFFNKNNIPNADLGLFVECFRLALTTVNPLLLRSSVACFETFLRRLRAQYPTWLKFRVPMLKNLVIDHIASRDLQKRVLNILIDLWHFNPSEIEKSLIHLSTTSKSAETRIQCFKWFVLAHNAHLSFDVKSLRPALYINLENANPSVREEAKEVLLLIYKNLSTSAKMQFITDVETTSGLRREILQSLVEELSLISSSSEVIIVQNSASSFQPAPFMTAVATLYPGVELENVKPLLANFSKQLEQDSASMLPAFEGRETEQNWSVRQDSVLRLRQYLRGNACIDYLPELLSVLKTLLPGILLALLSLRTTLSSSAIQLIKEMAIILKSNIDPFLELILPNLLKVCSVTKKLASQAANVTFAAILVNCGVLSRNLSFISLAAHDTNAQLRVFSSNWIFMLISLSPELKNLASLQTNLKAFEKLICRGLADSNSQVREVYRKSFWKLSEYFPSVQEELTNTLEPSVLKQLHLANPNRQAASFNFSGPKRAPIRPLSNLRSFSKSQKEETSSNSSNSSGTRRLGLPQRATPASRERVLPYTRSQAFHSTSLPPSLPSGHSPSIAIPSKRSVSATIKD
In the case of B3, the “stoichiometry N” value [3] is reported as ~3 polymerized tubulin dimers per Cls1 molecule.
